Test results: patent US20240092918A1 (Novartis, published 2024)

Experiments:
Human CCR7 [1] = biological target: T1, Human CCR7 (human, UniProt P32248 25-378); test: cell-based or functional assay
T1 sequence: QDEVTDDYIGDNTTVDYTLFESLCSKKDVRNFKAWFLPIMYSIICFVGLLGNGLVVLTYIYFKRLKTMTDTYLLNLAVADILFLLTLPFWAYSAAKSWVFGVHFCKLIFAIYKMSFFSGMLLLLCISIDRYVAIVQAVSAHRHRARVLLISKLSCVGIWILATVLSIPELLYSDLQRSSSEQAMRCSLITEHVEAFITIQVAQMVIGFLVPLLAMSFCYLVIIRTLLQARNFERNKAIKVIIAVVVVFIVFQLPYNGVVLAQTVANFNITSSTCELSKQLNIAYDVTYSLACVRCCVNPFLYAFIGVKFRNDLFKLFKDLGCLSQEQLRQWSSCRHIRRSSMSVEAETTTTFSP

Human CCR7 [2] = biological target: T1, Human CCR7; test: cell-based or functional assay; remark: listed apart in the source
Human CCR7 [3] = biological target: T1, Human CCR7; test: FACS binding assay
Human CCR7 [4] = biological target: T1, Human CCR7; test: cell-based or functional assay; remark: listed apart in the source
Human CCR7 [5] = biological target: T1, Human CCR7; test: cell-based or functional assay; remark: listed apart in the source
Human CCR7 [6] = biological target: T1, Human CCR7; test: cell-based or functional assay; remark: listed apart in the source

B1: 506E15 Parental (antibody, V domains shown)
VH: EVMLVESGGGLVKPGGSLKLSCAASGFTFSSYAMSWIRQTPEKRLEWVATISSGGSFTYYPDSVKGRFTISRDNVKNTLYLQMSSLRSEDTAMYYCARRASTVVGTDFDVWGAGTTVTVSS
VL: DIQMTQSPSSLSASLGERVSLTCRASQDIGSSLNWLQQEPDGTIKRLIYATSSLDSGVPKRFSGSRSGSDYSLTISSLESEDFVVYYCLQYASSPPTFGGGTKLEIK
506E15 IC50 (nM); ADCC reporter assay, ALL-SIL cells (6,200 CCR7 receptors) (Human CCR7 [1]): 0.008 nM
506E15 IC50 (nM); ADCC reporter assay, CMLT-1 cells (29,000 CCR7 receptors) (Human CCR7 [1]): 0.011 nM
506E15 IC50 (nM); ADCC reporter assay, DEL cells (62,000 CCR7 receptors) (Human CCR7 [1]): 0.074 nM
506E15 IC50 (nM); ADCC reporter assay, DND-41 cells (1,700 CCR7 receptors) (Human CCR7 [1]): 0.002 nM
506E15 IC50 (nM); ADCC reporter assay, JVM2 cells (66,500 CCR7 receptors) (Human CCR7 [1]): 0.046 nM
506E15 IC50 (nM); ADCC reporter assay, Jurkat V158 cells (3,400 CCR7 receptors) (Human CCR7 [1]): 0.004 nM
506E15 IC50 (nM); ADCC reporter assay, MOTN-1 cells (64,600 CCR7 receptors) (Human CCR7 [1]): 0.077 nM
506E15 IC50 (nM); ADCC reporter assay, PEER cells (8,700 CCR7 receptors) (Human CCR7 [1]): 0.038 nM
506E15 IC50 (nM); ADCC reporter assay, SR786 cells (27,800 CCR7 receptors) (Human CCR7 [1]): 0.011 nM

B2: 506E15 non-humanized CysMab (antibody, human IgG1, kappa, V domains shown)
VH: B1 VH
VL: DIQMTQSPSSLSASLGERVSLTCRASQDIGSSLNWLQQEPDGTIKRLIYATSSLDSGVPKRFSGSRSGSDYSLTISSLESEDFVVYYCLQYASSPPTFGGGTKLEIKR
ADCC activity; IC50 (nM); surrogate ADCC reporter assay, JVM2 target cells and Jurkat-V158 effector cells (Human CCR7 [2]): 0.131 nM

B3: 674J13 non-humanized CysMab (antibody, human IgG1, kappa, V domains shown)
VH: DVQLQESGPDLVKPSQSLSLTCTVTGYSITSGYSWHWIRQFPGNKLEWMAHIHSSGSTNYNPSLKSRISIIRDTSKNLFFLQLNSVTTEDTATYYCARGGVQAFAYWGQGTLVTVSA
VL: QIVLTQSPAIMSASPGEKVTMTCSASSSVIYMHWYQQKSGTSPKRWIYDTSKLASGVPARFSGSGSGTSYSLTISSMEAEDAATYYCQQWSSNPLTFGAGTTLELKR
ADCC activity; IC50 (nM); surrogate ADCC reporter assay, JVM2 target cells and Jurkat-V158 effector cells (Human CCR7 [2]): 1.09 nM

B4: 674J13.CysMab.DAPA.AURIX2 (antibody, human IgG1, kappa, V domains shown)
VH: DVQLQESGPGLVKPSQTLSLTCTVSGYSITSGYSWHWIRQHPGKGLEWMAHIHSSGSTNYNPSLKSRITISRDTSKNQFSLKLSSVTAADTAVYYCARGGVQAFAYWGQGTLVTVSS
VL: EIVLTQSPATLSASPGERVTMSCSASSSVIYMHWYQQKPGQAPRRWIYDTSKLASGVPARFSGSGSGTDYTLTISSMEPEDAAVYYCQQWSSNPLTFGQGTKLEIKR
modifications: DAR LC 0.03; AURIX2 on the engineered cysteines; DAR HC 3.93
notes: also called 674J13.DAPA.AURIX2
geometric mean fluorescence intensity, difference from the unconjugated antibody (Human CCR7 [3]): ≤ 20%
ADC activity in cell viability assay; IC50 (nM); CML-T1 cells (~29,000 CCR7 receptors) (Human CCR7 [4]): 3.78 nM
ADC activity in cell viability assay; IC50 (nM); DEL cells (~100,000 CCR7 receptors) (Human CCR7 [4]): 0.242 nM
ADC activity in cell viability assay; IC50 (nM); KE97 cells (~100,000 CCR7 receptors) (Human CCR7 [4]): 0.102 nM
ADC activity in cell viability assay; IC50 (nM); SR786 cells (~28,000 CCR7 receptors) (Human CCR7 [4]): 2.74 nM

B5: 121G12 non-humanized CysMab (antibody, human IgG1, kappa, V domains shown)
VH: EVQLVESGGGLVKPGGSLKLSCAASGFTFSTYAMSWVRQTPEKRLEWVATISDGGSYSYYPDNVKGRFTISRDNAKNNLYLQMSHLKSEDTAMYYCARRGSRYEEYYVMDYWGQGTSVTVSS
VL: DIVLTQSPATLSVTPGDSVSLSCRASQSISNNLHWYQQKSHESPKLLIKYASQSISGIPSRFSGSGSGTDFTLSINSVETEDFGMYFCQQSNSWLTFGAGTKLGLKR
ADCC activity; IC50 (nM); surrogate ADCC reporter assay, JVM2 target cells and Jurkat-V158 effector cells (Human CCR7 [2]): 0.077 nM

B6: 121G12.CysMab.AURIX1 (antibody, human IgG1, kappa, V domains shown)
VH: B5 VH
VL: B5 VL
modifications: AURIX1 on the engineered cysteines; DAR 3.80
notes: also called 121G12.AURIX1; 121G12 parental.Cys-Mab.wild type Fc.hIgG1.AURIX1
geometric mean fluorescence intensity, difference from the unconjugated antibody (Human CCR7 [3]): ≤ 20%

B7: 121G12.CysMab.DAPA.MPET.DM4 (antibody, human IgG1, kappa)
heavy: EVQLVESGGGLVKPGGSLRLSCAASGFTFSTYAMSWVRQAPGKGLEWVATISDAGSYSYYPDNVKGRFTISRDNAKNSLYLQMNSLRAEDTAVYYCARRGSRYEEYYVMDYWGQGTTVTVSSASTKGPSVFPLAPSSKSTSGGTAALGCLVKDYFPCPVTVSWNSGALTSGVHTFPAVLQSSGLYSLSSVVTVPSSSLGTQTYICNVNHKPSNTKVDKRVEPKSCDKTHTCPPCPAPELLGGPSVFLFPPKPKDTLMISRTPEVTCVVVAVSHEDPEVKFNWYVDGVEVHNAKTKPREEQYNSTYRVVSVLTVLHQDWLNGKEYKCKVSNKALAAPIEKTISKAKGQPREPQVYTLPPSREEMTKNQVSLTCLVKGFYPCDIAVEWESNGQPENNYKTTPPVLDSDGSFFLYSKLTVDKSRWQQGNVFSCSVMHEALHNHYTQKSLSLSPGK
light: EIVLTQSPATLSVSPGERVTLSCRASQSISNNLHWYQQKPGQAPRLLIKYASQSISGIPARFSGSGSGTDFTLTISSVEPEDFGVYFCQQSSSWLTFGQGTKLEIKRTVAAPSVFIFPPSDEQLKSGTASVVCLLNNFYPREAKVQWKVDNALQSGNSQESVTEQDSKDSTYSLSSTLTLSKADYEKHKVYACEVTHQGLSSPVTKSFNRGEC
modifications: MPET.DM4 linker-drug on the engineered cysteines (E152C, S375C, EU numbering); DAR 3.79
notes: also called 121G12.CysMab.DAPA.MPET.DM4 (DAR 3.8); MPET.DM4 ADC
In vitro cytotoxic activity, IC50 (nM); DEL cells (relative receptor density 67%) (Human CCR7 [5]): 2.28 nM
In vitro cytotoxic activity, IC50 (nM); JVM2 cells (relative receptor density 79%) (Human CCR7 [5]): 4.62 nM
In vitro cytotoxic activity, IC50 (nM); KE97 cells (relative receptor density 100%) (Human CCR7 [5]): 2.24 nM
In vitro cytotoxic activity, IC50 (nM); L540 cells (relative receptor density 175%) (Human CCR7 [5]): 4.9 nM
In vitro cytotoxic activity, IC50 (nM); MOTN1 cells (relative receptor density 67%) (Human CCR7 [5]): 4.24 nM
In vitro cytotoxic activity, IC50 (nM); Mec-2 cells (relative receptor density 15%) (Human CCR7 [5]): > 20 nM
In vitro cytotoxic activity, IC50 (nM); OCI-Ly3 cells (relative receptor density 43%) (Human CCR7 [5]): 6.42 nM
In vitro cytotoxic activity, IC50 (nM); PEER cells (relative receptor density 2%) (Human CCR7 [5]): > 20 nM
In vitro cytotoxic activity, IC50 (nM); SUPHD1 cells (relative receptor density 310%) (Human CCR7 [5]): 1.69 nM
geometric mean fluorescence intensity, difference from the unconjugated antibody (Human CCR7 [3]): ≤ 20%

B8: 121G12.DAPA.sSPDB.DM4 (antibody, human IgG1, kappa)
heavy: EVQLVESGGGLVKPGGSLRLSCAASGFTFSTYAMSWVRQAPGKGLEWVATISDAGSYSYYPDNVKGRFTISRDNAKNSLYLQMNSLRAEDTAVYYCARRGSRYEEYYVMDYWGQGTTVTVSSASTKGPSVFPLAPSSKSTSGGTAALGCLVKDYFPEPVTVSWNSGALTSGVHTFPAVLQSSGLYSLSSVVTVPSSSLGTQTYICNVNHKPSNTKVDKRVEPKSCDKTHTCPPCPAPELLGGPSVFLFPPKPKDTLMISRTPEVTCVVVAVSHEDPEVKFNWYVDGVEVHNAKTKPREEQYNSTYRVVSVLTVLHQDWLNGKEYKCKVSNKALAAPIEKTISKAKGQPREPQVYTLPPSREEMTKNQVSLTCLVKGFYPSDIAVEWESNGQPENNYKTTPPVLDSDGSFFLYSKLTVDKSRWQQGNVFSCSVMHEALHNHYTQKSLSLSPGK
light: B7 light
modifications: sulfo-SPDB-DM4 on endogenous lysines, sites not defined; sulfo-SPDB-DM4 on endogenous lysines, sites not defined (DAR 3.6 as prepared; labelled DAR3.9 in the assays)
notes: also called 121G12.DAPA.sSPDB.DM4 (DAR3.9); sSPDB.DM4 ADC
geometric mean fluorescence intensity, difference from the unconjugated antibody (Human CCR7 [3]): ≤ 20%

B9: 684E12 non-humanized CysMab (antibody, human IgG1, kappa, V domains shown)
VH: EVHLVESGGGLVKPGGSLKLSCAASGFTFSNFAMSWVRQTPEKRLEWVATISTGGTYTYYPDSVKGRFTISRDNAKKTLYLQMSSLRSEDTAMYYCTRRGYDGVDKWGQGTTLTVSS
VL: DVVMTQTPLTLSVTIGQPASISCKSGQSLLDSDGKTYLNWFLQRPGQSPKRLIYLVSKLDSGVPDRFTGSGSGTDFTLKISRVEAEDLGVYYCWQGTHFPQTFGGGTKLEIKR
ADCC activity; IC50 (nM); surrogate ADCC reporter assay, JVM2 target cells and Jurkat-V158 effector cells (Human CCR7 [2]): 2.63 nM

B10: 684E12.SMCC.DM1 (antibody, V domains shown)
VH: B9 VH
VL: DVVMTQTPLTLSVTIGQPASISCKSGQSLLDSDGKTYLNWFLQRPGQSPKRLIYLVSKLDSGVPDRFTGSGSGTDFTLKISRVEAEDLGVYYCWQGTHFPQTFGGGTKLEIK
modifications: SMCC-DM1 on lysines of the antibody, sites not defined; DAR 2.6
notes: also called parental 684E12.SMCC.DM1 (DAR2.6)
geometric mean fluorescence intensity, difference from the unconjugated antibody (Human CCR7 [3]): ≤ 20%

B11: 506E15 (Humanized CysMab DAPA) (antibody, human IgG1, kappa, V domains shown)
VH: EVQLVESGGGLVKPGGSLRLSCAASGFTFSSYAMSWIRQAPGKGLEWVATISSGGSFTYYPDSVKGRFTISRDNAKNSLYLQMNSLRAEDTAVYYCARRASTVVGTDFDVWGQGTTVTVSS
VL: DIQMTQSPSSLSASVGDRVTLTCRASQDIGSSLNWLQQKPGKAIKRLIYATSSLDSGVPSRFSGSRSGTDYTLTISSLQPEDFVVYYCLQYASSPPTFGGGTKLEIKR
pHrodo (6 h MFI), uptake of pHrodo-labelled antibody at 5 ug/ml, CD4+ T cells (2000 receptors) (Human CCR7 [6]): 429 MFI
pHrodo (6 h MFI), uptake of pHrodo-labelled antibody at 5 ug/ml, CMLT1 cells (19583 receptors) (Human CCR7 [6]): 465 MFI
pHrodo (6 h MFI), uptake of pHrodo-labelled antibody at 5 ug/ml, DEL cells (110685 receptors) (Human CCR7 [6]): 3060 MFI
pHrodo (6 h MFI), uptake of pHrodo-labelled antibody at 5 ug/ml, JVM3 cells (8717 receptors) (Human CCR7 [6]): 238 MFI
pHrodo (6 h MFI), uptake of pHrodo-labelled antibody at 5 ug/ml, Jeko-1 cells (28852 receptors) (Human CCR7 [6]): 908 MFI
pHrodo (6 h MFI), uptake of pHrodo-labelled antibody at 5 ug/ml, KE97 cells (152093 receptors) (Human CCR7 [6]): 2720 MFI
pHrodo (6 h MFI), uptake of pHrodo-labelled antibody at 5 ug/ml, L540 cells (167549 receptors) (Human CCR7 [6]): 16100 MFI
pHrodo (6 h MFI), uptake of pHrodo-labelled antibody at 5 ug/ml, L1236 cells (61602 receptors) (Human CCR7 [6]): 3130 MFI
pHrodo (6 h MFI), uptake of pHrodo-labelled antibody at 5 ug/ml, MJ cells (111121 receptors) (Human CCR7 [6]): 3870 MFI
pHrodo (6 h MFI), uptake of pHrodo-labelled antibody at 5 ug/ml, MOTN1 cells (84200 receptors) (Human CCR7 [6]): 2900 MFI
pHrodo (6 h MFI), uptake of pHrodo-labelled antibody at 5 ug/ml, Mec2 cells (50840 receptors) (Human CCR7 [6]): 3090 MFI

B12: 506E15 humanized CysMab (Fc Wild Type) (antibody, human IgG1, V domains shown)
VH: B11 VH
VL: DIQMTQSPSSLSASVGDRVTLTCRASQDIGSSLNWLQQKPGKAIKRLIYATSSLDSGVPSRFSGSRSGTDYTLTISSLQPEDFVVYYCLQYASSPPTFGGGTKLEIK
ADCC activity; IC50 (nM); surrogate ADCC reporter assay, JVM2 target cells and Jurkat-V158 effector cells (Human CCR7 [2]): 0.054 nM

B13: 506E15.CysMab.DAPA.AURIX2 (antibody, human IgG1, kappa, V domains shown)
VH: B11 VH
VL: B11 VL
modifications: AURIX2 on the engineered cysteines; DAR 3.80
notes: also called 506E15.DAPA.AURIX2
geometric mean fluorescence intensity, difference from the unconjugated antibody (Human CCR7 [3]): ≤ 20%
